# Patent US20040091578A1 (priority 2001, published 2004)
# B1: Soybean Kunitz: Kunitz soybean trypsin inhibitor (protein, UniProt P01070 25-205, looked up)
# Trypsin inhibitor A: DFVLDNEGNPLENGGTYYILSDITAFGGIRAAPTGNERCPLTVVQSRNELDKGIGTIISSPYRIRFIAEGHPLSLKFDSFAVIMLCVGIPTEWSVVEDLPEGPAVKIGENKDAMDGWFRLERVSDDEFNNYKLVFCPQQAEDDKCGDIGISIDHDDGTRRLVVSKNKPLVVQFQKLDKESL
# Experiments:
# castor seed 2S protein = castor seed 2S protein (Ricinus communis, UniProt P01089); format: biochemical; conditions: 20 min at 25° C.
# pepsin [1] = target: T1, pepsin (Sus scrofa, UniProt P00791); test: Pepsin assay in simulated gastric fluid (Example 39); format: in vitro ADME, porcine
# T1 construct: purchased Sigma
# Description: BLG, 640 μg, or milk, 1 mg protein (i.e., about 30 μl), was incubated with or without the thioredoxin system (NTS) at either 4° C. […] The BLG, 320 μg, or milk, 500 μg protein, was then treated in 200 μl of simulated gastric fluid (SGF) as described by Astwood, J. D. et al. (1996), “Stability of food allergens to digestion in vitro”, Nature Biotechnol. 14:1269-1273. SGF consists of 0.32% pepsin (w/v) and 30 mM NaCl adjusted at pH 1.2 with HCl (Board of Trustees (ed.) 1995, Simulated Gastric Fluid, TS., pp. 2053 in the United States Pharmacopeia 23, The National Formulary 18. United States Pharmacopeial Convention, Inc. Rockville, Md.). The reaction mixture was incubated at 37° C. and stopped by adding 0.375-fold volume of 160 mM Na2CO3 (ca. pH 7) after 0, 0.25, 1, 2, 4, 8, 15, 30 and 60 min incubation. The protein mixture was then subjected to SDS-PAGE (15% gels) and stained for protein with Coomassie blue as described below. As indicated, the allergenicity of the digested samples was determined by skin test analysis.
# atopic dogs = test: Skin tests with milk and BLG in atopic dogs (Example 39); format: in vivo; conditions: dog model skin tests
# Description: Newborn pups from two litters of the atopic dog colony, designated CGB and GCB, were injected subcutaneously at day 1 with 1 μg each of wheat, cows milk and beef extract (Miles, Inc., Elkhart, Ind., described in Example 33) in 0.2 ml of alum. A third litter, designated CBB, was injected with a soy extract (Miles, Inc. described in Example 33) in addition to these same allergens. Procedures for the sensitization, testing and maintenance of the pups were substantially the same as those described in Example 36.
# About 3 min prior to skin testing, each dog received 4-5 ml of filtered 0.5% Evans blue dye solution (equivalent to 0.2 ml of 0.5% Evans blue dye per kg of weight) through a cephalic vein to enhance assessment of the cutaneous IgE antibodies. Serial dilutions of 100 μl of each sample were injected intradermally on the abdominal skin to establish the titer. After 15-20 min, the allergic response was determined by measuring the size of the blue wheal reaction (maximum length and width). An appropriate negative control (buffer diluted in physiological saline) was included for each animal tested. Repeated tests with thioredoxin, NTR, NADPH and pepsin alone were consistently negative.
# [2] = Redox stability of reduced BLG in air; format: physicochemical; conditions: NTS-treated raw milk without buffer, stored at 4° C. in air
# Description: BLG is known to contain two disulfides, both intramolecular (See, FIG. 8): one clearly accessible on the surface and located close to the C-terminus (Cys 66-Cys 160) and the other, close to the core, located between two β-sheets (Cys 106-Cys 119 or possibly Cys 106-Cys 121). Sequence analysis confirmed that the exposed disulfide (Cys 66-Cys 160) was reduced at 55° C. […] Differential reduction of BLG could also be achieved by altering pH. […] Furthermore, the BLG in this treated milk without buffer remained reduced for 2 days when stored at 4° C. in air (data not shown).
# Two sulfhydryl (SH) groups can often spontaneously react to form an S—S bond in the presence of oxygen. […] For example, the reduced form of β-lactoglobulin (BLG), a major allergen of cow's milk, is fully reoxidized after 3 days in air whether reduced by either NTS or DTT. This invention provides for the stabilization of proteins, including allergenic proteins reduced by the NTS at 4° C. and by DTT at 55° C. Other physiological reductants such as lipoic acid may also be used to initially reduce the proteins. In general, the reduction reactions were conducted as described in previous examples. The proteins are stabilized in that the SH groups of these proteins and allergens are blocked and prevented from reoxidizing to form S—S bonds. […]
# pepsin [3] = target: T1, pepsin; test: Stability to pepsin in simulated gastric fluid (Example 44); format: in vitro ADME, porcine; conditions: 37° C., 0.32% pepsin
# Description: Assay for Stability to Pepsin. BLG (1 mg/ml) or milk (15 mg/ml) were mixed with simulated gastric fluid (SGF) to give 0.32% pepsin and incubated for the indicated times at 37° C. as described in Example 39 and Astwood et al., 1996, herein incorporated by reference. The digested proteins were analyzed by reducing SDS-PACE (10 to 20% gradient gel) also as described in Laemmli, 1970, herein incorporated by reference.
# trypsin [4] = test: Trypsin proteolysis of purified milk allergens; format: biochemical; conditions: 10 μg NTS reduced protein, 2 μg trypsin
# Description: The analysis of the reduction was done using the mBBr/SDS-PAGE techniques. Further in this study, when 10 μg of an NTS reduced purified milk allergen protein, β-lactoglobulin (Sigma Chemical Co.), was treated with 2 μg of trypsin, proteolysis was 100% as compared with only 50% for the identically trypsin treated oxidized β-lactoglobulin. […] However, 10 μg of purified α-lactalbumin reduced by the NTS was proteolyzed 80% by trypsin. Also 10 μg of α-lactalbumin reduced by 0.8 μg of thioredoxin and 0.5 mM DTT was 100% proteolyzed by 2 μg of trypsin.
# trypsin [5] = test: Trypsin inhibition assay; format: biochemical
# Description: Unless indicated, the reduction of the trypsin inhibitors (0.4 mg/ml) was carried out in 0.1 ml of 20 mM sodium phosphate buffer, pH 7.9 containing 10 mM EDTA at 30° C. for 2 hours. The concentrations of thioredoxin, NTR, and NADPH were 0.024 mg/ml, 0.02 mg/ml, and 0.25 mM, respectively. […] Following reduction, aliquots of the inhibitor mixture were withdrawn either for determination of trypsin inhibitory activity or proteolytic susceptibility. In the subtilisin tests, the inhibitor mixture (50 μl) was directly mixed with subtilisin and incubated at room temperature for 1 hour. […] Proteolytic products were analyzed by electrophoresis with 12% or 16% SDS polyacrylamide slab gels (Laemmli, 1970). […]
# Thioredoxin and NTR were assayed as previously described by Florencio et al. (1988). Trypsin activity was measured in 50 mM Tris-HCl, pH 7.9, by following the increase in absorbance at 253 nm with N-benzoyl-L-arginine ethyl ester as substrate (Mundy et al., 1984) or by the release of azo dye into the trichloroacetic acid (TCA)-soluble fraction from azocasein substrate (see below). For trypsin inhibition assays, trypsin (5 to 10 μg) was preincubated with appropriate amounts of KTI or BBTI for 5 minutes at room temperature in 50 mM Tris-HCl, pH 7.9 and proteolytic activity was then determined. […]
# [6] = test system: wheat protease preparation; test: Susceptibility to proteolysis by a plant protease preparation, SDS-PAGE densitometry; format: biochemical
# Description: The endosperm (10-15 g fresh weight) isolated from 5-day germinated wheat seeds by excising the roots and shoots was extracted for 30 minutes at 4° C. with 5 volumes of 200 mM sodium acetate, pH 4.6, containing 10 mM β-mercaptoenthanol. The homogenate was centrifuged for 20 minutes at 48,000 g, 4° C. The pellet was discarded and the supernatant fluid was fractionated with 30-70% ammonium sulfate. This fraction, which represented the protease preparation, was resuspended in a minimum volume of 20 mM sodium acetate, pH 4.6, containing 10 mM β-mercaptoenthanol, and dialyzed against this buffer overnight at 4° C.
# Unless indicated, the reduction of the trypsin inhibitors (0.4 mg/ml) was carried out in 0.1 ml of 20 mM sodium phosphate buffer, pH 7.9 containing 10 mM EDTA at 30° C. for 2 hours. The concentrations of thioredoxin, NTR, and NADPH were 0.024 mg/ml, 0.02 mg/ml, and 0.25 mM, respectively. […] Following reduction, aliquots of the inhibitor mixture were withdrawn either for determination of trypsin inhibitory activity or proteolytic susceptibility. In the subtilisin tests, the inhibitor mixture (50 μl) was directly mixed with subtilisin and incubated at room temperature for 1 hour. With the wheat protease preparation, the pH of the inhibitor mixture (50 μl) was first adjusted to 4.7 by mixing with 35 μl of 200 mM sodium acetate, pH 4.6; 10 μl of the wheat protease preparation was then added and incubation was continued for 2 hours at 37° C. To stop digestion with subtilisin, 2 μl of 100 mM phenylmethylsulfonyl fluoride (PMSF) and 10 μl of 10% SDS were added to the digestion mixture. With the plant protease preparation, digestion was stopped by adding an equal volume of SDS sample buffer [0.125 M Tris-HCl, pH 6.8, 4% (w/v) SDS, 20% (v/v) glycerol, 10% (v/v) β-mercaptoethanol, and 0.02% (w/v) bromophenol blue]. Proteolytic products were analyzed by electrophoresis with 12% or 16% SDS polyacrylamide slab gels (Laemmli, 1970). The dried slab gels were scanned with a laser densitometer (Pharmacia-LKB UltraScan XL) and the peak area of the KTI or BBTI protein band was obtained by integration with a Pharmacia GelScan XL software program.
# To test whether the reduced forms of KTI and BBTI show decreased stability to proteases other than trypsin, both the reduced and oxidized forms of KTI and BBTI were incubated with a wheat protease preparation or with subtilisin and the proteolytic products were analyzed by SDS-PAGE. The extent of proteolysis was determined by measuring the abundance of intact protein on SDS gels by laser densitometer. When tested with a protease preparation from 5-day germinated wheat seeds, the oxidized form of the Kunitz inhibitor was almost completely resistant to digestion whereas the thioredoxin-reduced form was susceptible to protease. […] The nature of the proteolytic reaction was not investigated, but it is noted that peptide products were not detected on SDS gels.
# glutaredoxin = target: T2, glutaredoxin (Escherichia coli, UniProt P68688); test: Reduction by glutaredoxin, mBBr/SDS-PAGE with densitometric scanning; format: biochemical; conditions: E. coli glutaredoxin, glutathione reductase, NADPH
# T2 sequence (P68688 1-85): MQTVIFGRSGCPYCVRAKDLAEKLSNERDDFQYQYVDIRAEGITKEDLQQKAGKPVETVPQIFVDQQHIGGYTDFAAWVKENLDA
# Description: Direct reduction of the proteins under study was determined by a modification of the method of Crawford et al. (Crawford, N. A. et al. (1989), Arch. Biochem. Biophys. 271:223-239). The reaction was carried out in 100 mM potassium phosphate buffer, pH 7.1, containing 10 mM EDTA and 16% glycerol in a final volume of 0.1 ml. As indicated, 0.7 μg (0.1 μM) NTR and 1 μg (0.8 μM) thioredoxin (both routinely from E. coli were added to 70 μl of the buffer solution containing 1 mM NADPH and 10 μg (2 to 17 μM) of target protein. When thioredoxin was reduced by dithiothreitol (DTT, 0.5 mM), NADPH and NTR were omitted. Assays with reduced glutathione were performed similarly, but at a final concentration of 1 mM. After incubation for 20 min, 100 nmoles of mBBr were added and the reaction was continued for another 15 min. To stop the reaction and derivatize excess mBBr, 10 μl of 10% SDS and 10 μl of 100 mM β-mercaptoethanol were added and the samples were then applied to the gels. […]
# This ability was tested, using glutaredoxin from E. coli and the seed proteins currently under study. Reduction activity was monitored by the mBBr/SDS polyacrylamide gel electrophoresis procedure coupled with densitometric scanning.
# trypsin [7] = conditions: soy flour, 30 min at 120° C. (Friedman et al., 1991); cited from earlier work
# T1 sequence (P00791 60-385): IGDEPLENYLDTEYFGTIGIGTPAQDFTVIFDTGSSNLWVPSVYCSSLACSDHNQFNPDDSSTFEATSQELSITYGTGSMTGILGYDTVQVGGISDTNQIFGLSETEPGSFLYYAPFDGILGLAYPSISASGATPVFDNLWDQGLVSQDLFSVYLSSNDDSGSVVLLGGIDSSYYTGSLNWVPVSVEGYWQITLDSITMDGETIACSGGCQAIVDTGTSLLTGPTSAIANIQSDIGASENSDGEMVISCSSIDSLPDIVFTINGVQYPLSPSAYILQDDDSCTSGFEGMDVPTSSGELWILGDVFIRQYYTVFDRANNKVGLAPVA
# castor seed 2S protein, sequence (P01089 194-258 limits assumed): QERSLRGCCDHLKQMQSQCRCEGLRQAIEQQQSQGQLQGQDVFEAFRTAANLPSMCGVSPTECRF
# castor seed 2S protein, sequence (P01089 157-190 partner limits assumed): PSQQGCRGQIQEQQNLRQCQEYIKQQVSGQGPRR
molecule,measurement,setting,value
"O[C@H](CS)[C@H](O)CS (racemic) [DTT, dithiothreitol]",Relative Reduction (%),castor seed 2S protein,67%
"β-lactoglobulin: bovine β-lactoglobulin, major milk allergen; untreated (oxidized) control in Tables XVIII, XXI-XXIV",time resisting digestion in SGF,pepsin [1]; oxidized BLG in milk,at least 60 min
same,time to digestion in SGF,pepsin [1]; thioredoxin-reduced BLG in milk,≤ 60 s
same,share of the total wheal-inducing activity of milk,atopic dogs,80%
same,time BLG remained reduced,[2],2 days
same,half-life in SGF,pepsin [3],about 2 hours
same,proteolysis by trypsin,trypsin [4],100%
B1,increase in trypsin activity effected by the NADP/thioredoxin system,trypsin [5],3 fold
same,Relative Abundance,[6]; Protease after E. coli NTS,22.1
same,Relative Abundance,[6]; Protease after NTS minus NADPH,97.7
same,Relative Abundance,[6]; Protease after NTS minus NTR,97.9
same,Relative Abundance,[6]; Protease after NTS minus thioredoxin,90.2
same,Relative Abundance,"[6]; Protease, No reduction system, no protease = 100",97.9
same,degraded,[6]; all components of NTS present,about 80%
same,percentage reduction by glutaredoxin relative to E. coli thioredoxin,glutaredoxin,ineffective
same,original trypsin inhibitor activity remaining,trypsin [7],about 20%
